The values that follow come from patent US20120329994A1.

Broadly, the Kd is the equilibrium constant for the complex coming apart.

Assay [1] addresses WNV DIII (residues 296-404) of the New York 1999 strain, expressed in E. coli and refolded (West Nile virus, New York 1999 strain) (UniProt Q9Q6P4). Kind of assay: SPR. (SPR reads the build-up and loss of mass on a sensor chip optically.)
The target of assay [2] is WNV E ectodomain (residues 1-404) of the New York 1999 strain, expressed in E. coli and refolded (West Nile virus, New York 1999 strain) (UniProt Q9Q6P4). As to the kind of experiment: SPR.

In the case of “mHu-E16 (humanized E16 monoclonal antibody produced in CHO cells)”, the dissociation constant (Kd) in assay [1] is 32 nM; in assay [2] it was 45 nM.

As for “pHu-E16 (plant-produced humanized E16 monoclonal antibody, made in N. benthamiana)”, the Kd in assay [1] turned out to be 41 nM; in assay [2], 46 nM.
